Test results from patent US20210309747A1.
pEC50: −log10 of the molar value.

Target: human PD-L1 on Raji cells (human) (UniProt Q9NZQ7)
Test: flow cytometry blocking assay on Raji-PDL1 cells; blocked ligand: biotinylated Avi- and His-tag human PD1 protein at 3 ug/mL, Streptavidin-PE, MFI; isotype control, the fitted curve falls only from MFI about 320 to about 240

human PD-L1 on Raji cells (human), sequence (Q9NZQ7 19-290): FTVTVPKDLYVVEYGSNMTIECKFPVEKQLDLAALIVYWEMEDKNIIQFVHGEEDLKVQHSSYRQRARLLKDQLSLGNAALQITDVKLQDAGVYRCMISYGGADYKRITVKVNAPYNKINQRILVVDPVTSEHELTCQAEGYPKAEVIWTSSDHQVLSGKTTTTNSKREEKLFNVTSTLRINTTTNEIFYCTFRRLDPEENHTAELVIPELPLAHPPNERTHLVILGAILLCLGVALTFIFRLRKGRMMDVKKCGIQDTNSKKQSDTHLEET

pEC50: 9.35
Substance: IgG (antibody)
